# Data reported in paper PMC3790826.
# Assays:
# [1] = molecular target: rice RAD51A2 (japonica cultivar Nipponbare), His6 tag removed (Oryza sativa (japonica cultivar Nipponbare)); test: SEC; Superdex 200 GL 10/300; 70 µg protein incubated 30 min at room temperature without nucleotide (the printed oligomer sizes), with 1 mM ATP (apparent sizes drastically increased) or with 1 mM ADP (no such change); elution in 20 mM HEPES-NaOH pH 7.5, 400 mM NaCl, 0.1 mM EDTA, 2 mM 2-mercaptoethanol, 1 mM MgCl2; apparent molecular sizes
# [2] = molecular target: rice RAD51A1 (japonica cultivar Nipponbare), His6 tag removed (Oryza sativa (japonica cultivar Nipponbare)); test: as above
stoichiometry N [1],stoichiometry N [2],Substance
5 -mer,,"rice RAD51A2 (japonica cultivar Nipponbare), His6 tag removed (natural protein)"
,8 -mer,"rice RAD51A1 (japonica cultivar Nipponbare), His6 tag removed (natural protein)"
